Reference: US20160083466A1 (Regeneron, published 2016)

T1: mouse IL-25 expressed with a C-terminal myc-myc-hexahistidine tag (mouse)
T1 chain: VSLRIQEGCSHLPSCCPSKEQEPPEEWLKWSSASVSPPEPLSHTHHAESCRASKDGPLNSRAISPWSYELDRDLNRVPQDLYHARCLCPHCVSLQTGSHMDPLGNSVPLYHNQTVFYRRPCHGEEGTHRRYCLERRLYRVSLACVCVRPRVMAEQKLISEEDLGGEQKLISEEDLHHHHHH

T2: human IL-25 expressed with a C-terminal myc-myc-hexahistidine tag (human)
T2 chain: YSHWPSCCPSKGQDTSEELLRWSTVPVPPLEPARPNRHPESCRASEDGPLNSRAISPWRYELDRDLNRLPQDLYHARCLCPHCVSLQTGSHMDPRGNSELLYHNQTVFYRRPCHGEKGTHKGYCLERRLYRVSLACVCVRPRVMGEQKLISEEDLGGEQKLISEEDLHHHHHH

T3: monkey IL-25 expressed with a C-terminal myc-myc-hexahistidine tag (M. fascicularis (cynomolgus monkey))
T3 chain: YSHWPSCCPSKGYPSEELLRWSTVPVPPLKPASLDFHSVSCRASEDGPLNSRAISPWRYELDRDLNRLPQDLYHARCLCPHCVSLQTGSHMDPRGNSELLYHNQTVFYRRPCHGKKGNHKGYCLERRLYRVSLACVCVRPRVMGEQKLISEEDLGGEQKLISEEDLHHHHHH

T4: rat IL-25 expressed with a C-terminal myc-myc-hexahistidine tag (rat)
T4 construct: also called Rat IL-25-MMH
T4 chain: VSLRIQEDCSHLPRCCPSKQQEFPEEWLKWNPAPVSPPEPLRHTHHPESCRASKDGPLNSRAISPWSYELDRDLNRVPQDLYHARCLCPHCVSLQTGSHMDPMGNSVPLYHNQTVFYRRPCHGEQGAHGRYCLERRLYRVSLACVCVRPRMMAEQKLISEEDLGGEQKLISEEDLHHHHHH

B1: H4H10863P (antibody, human IgG4, V domains shown)
VH: QVQLVQSGAEVKKPGASVKVSCKASGYTFSSYGISWVRQAPGQGLEWMGWISAYNDNTQYAQKFQGRVTMTTDTSTSTAYMELRSLRSDDTAVYYCARVPLQWFGESFDHWGQGTLVTVSS
VL: DIQMTQSPSSLSASVGDRVTITCRASQDINNYLNWFQQKPGKAPKLLIFSTSSLQSGVPSRFSGSGSGTDFTLTISSLQSEDFATYYCQQTFITPLTFGGGTKVEIK
notes: H4H prefix = human IgG4 Fc
B2: H4H10897P (antibody, human IgG4, V domains shown)
VH: QVQLQESGPGLVKPSETLSLTCTVSGGSISDYYWSWIRQPPGKGLEWIGHIYYSGSTNHNPSLKSRVAISVDTSKNQFSLRLYSVTAADTAVYYCARDGYSSSSGFYYFGMDVWGQGTTVTVSS
VL: DIQLTQSPSFLSASVGDRVTITCWASQDINSYLAWYQQKPGKAPKLLIFAASTLQGGVPSRFSGSGSGTEFTLTISSLQPEDFATYYCQHLSSFPPTFGQGTRLEIK
notes: H4H prefix = human IgG4 Fc
B3: H4H10876P (antibody, human IgG4, V domains shown)
VH: QVQLVQSGAEVKKPGASVKVSCKASEYTFSNYGISWVRQAPGQGLEWLGWIGAYSGFTKYAQKVQDRITMTTDASTTTAYMELRNLRSDDTAVYYCARVGTGTDSYFDFWGQGTLVTVSS
VL: DIQMTQSPSSLSASVGDRVTITCRASQNINSHLNWYQQKPGKAPKLLIYTASSLQSGVPLRFSGSGSGTDFTLTISSLQPEDFGIYICQQTYITPLTFGGGTKVEIK
notes: H4H prefix = human IgG4 Fc
B4: H4H10905P (antibody, human IgG4, V domains shown)
VH: QVQLVQSGAEVKKPGTSVKVSCKASGYTFTNYGISWVRQAPGQGLEWLGWISAYNDNTDYAQKLQARVTMTTDTFTSTAYMDLRSLRSDDTAVYYCARVPITGTTSSFDFWGQGTLVTVSS
VL: DIQMTQSPSSLSASVGDRVTISCRASQTIYSYLNWFQQKPGKAPKLLIYDASSLQSGVPSRFSGSGSGTHFTLTISSLQPEDFATYFCQQTYSTPLTFGGGTKVEIK
notes: H4H prefix = human IgG4 Fc
B5: H4H10871P (antibody, human IgG4, V domains shown)
VH: QVQLVQSGAEVMKPGASVKVSCKSSDFAFTTYGISWVRQAPGQGLEWMGWISAYNGNTNYEQRFQGRITMTTDTSTTTVYMELRSLRSDDTAVYYCARDPDYCSSNTCSDAFDLWGQGTMVTVSS
VL: DIQMTQSPSSLSASVRDRVTITCRASQGITNYLAWYQQKPGKVPKVLIYAASTLQSGVPSRFSGSGSGTEFTLAISSLQPEDVATYFCQQYGSAPWTFGQGTKVEIK
notes: H4H prefix = human IgG4 Fc

Target: T1, mouse IL-25 expressed with a C-terminal …
Assay: cell-based or functional assay

| IC50, luciferase reporter cells, 10 pM mIL-25-MMH | Binder |
| --- | --- |
| 4.3e-09 M | B1 |
| 1.5e-08 M | B2 |
| 8.8e-10 M | B3 |
| 6.8e-10 M | B4 |
| 6.7e-10 M | B5 |

Target: T2, human IL-25 expressed with a C-terminal …
Assay: cell-based or functional assay

| IC50, luciferase reporter cells, 5 pM hIL-25-MMH | Binder |
| --- | --- |
| 6.9e-10 M | B1 |
| 4.6e-10 M | B2 |
| 4.6e-10 M | B3 |
| 5.1e-10 M | B4 |
| 3.2e-10 M | B5 |

Target: T3, monkey IL-25 expressed with a …
Assay: cell-based or functional assay

| IC50, luciferase reporter cells, 12 pM MfIL-25-MMH | Binder |
| --- | --- |
| 3.5e-10 M | B1 |
| 4e-10 M | B2 |
| 2.1e-10 M | B3 |
| 2.1e-10 M | B4 |
| 8.8e-11 M | B5 |

Target: T2, human IL-25 expressed with a C-terminal …
Assay: competition ELISA, 2 nM hIL-25-MMH binding to coated hIL-17RB-hFc
Method: (§1) Data analysis was performed using a sigmoidal dose-response model within Prism™ software (GraphPad). […] The absorbance values of the wells containing the highest concentration for each antibody were used to determine the percent maximum blockade.

| % Maximum blocking of 200 nM antibody | Binder |
| --- | --- |
| 87% | B1 |
| 94% | B2 |
| 89% | B3 |
| 86% | B4 |
| 92% | B5 |

Target: T4, rat IL-25 expressed with a C-terminal …
Assay: SPR Biacore, antibody captured, 25C;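 for 100 nM Rat IL-25-MMH Bound (RU): purified anti-IL-25 antibodies were tested by real-time surface plasmon resonance on a Biacore 4000, with rate constants obtained from sensorgram fits to a 1:1 binding model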

| 100 nM Rat IL-25-MMH Bound (RU) | Kd | koff | kon | t½ | Binder |
| --- | --- | --- | --- | --- | --- |
| 34 RU | 1.07 nM | 0.000164 s⁻¹ | 153000 M⁻¹ s⁻¹ | 1.17 h | B1 |
| 23 RU | 2.42 nM | 0.000807 s⁻¹ | 333000 M⁻¹ s⁻¹ | 0.233 h | B2 |
| 45 RU | 0.341 nM | 8.81e-05 s⁻¹ | 259000 M⁻¹ s⁻¹ | 2.18 h | B3 |
| 45 RU | 0.81 nM | 0.000135 s⁻¹ | 167000 M⁻¹ s⁻¹ | 1.42 h | B4 |
| 37 RU | 0.132 nM | 7.23e-05 s⁻¹ | 548000 M⁻¹ s⁻¹ | 2.67 h | B5 |

Target: T1, mouse IL-25 expressed with a C-terminal …
Assay: SPR Biacore, antibody captured, 37C;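 for 100 nM Monkey IL-25-MMH Bound (RU): biacore 4000 surface plasmon resonance biosensor measuring binding of IL-25-MMH to purified anti-IL-25 antibodies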;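 for 100 nM Mouse IL-25-MMH Bound (RU): Real-time sensorgrams of IL-25-MMH binding to purified anti-IL-25 antibodies, rate constants obtained by fitting a 1:1 binding model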
Method: (§2) Equilibrium dissociation constants (KD values) for IL-25 binding to purified anti-IL-25 antibodies were determined using a real-time surface plasmon resonance biosensor assay on a Biacore 4000 instrument (GE Healthcare). […] All the IL-25 reagents were expressed with a C-terminal myc-myc-hexahistidine tag (referred to herein as “IL-25-MMH”). […] Kinetic association (kₐ) and dissociation (kd) rate constants were determined by fitting the real-time sensorgrams to a 1:1 binding model using Scrubber 2.0c curve fitting software.

| 100 nM Mouse IL-25-MMH Bound (RU) | Kd | koff | kon | t½ | Binder |
| --- | --- | --- | --- | --- | --- |
| 37 RU | 1.14 nM | 0.000153 s⁻¹ | 134000 M⁻¹ s⁻¹ | 1.27 h | B1 |
| 17 RU | 36.2 nM | 0.00641 s⁻¹ | 177000 M⁻¹ s⁻¹ | 0.03 h | B2 |
| 51 RU | 0.243 nM | 8.97e-05 s⁻¹ | 369000 M⁻¹ s⁻¹ | 2.15 h | B3 |
| 47 RU | 0.441 nM | 0.000178 s⁻¹ | 403000 M⁻¹ s⁻¹ | 1.08 h | B4 |
| 41 RU | 0.258 nM | 8.29e-05 s⁻¹ | 322000 M⁻¹ s⁻¹ | 2.32 h | B5 |

Target: T2, human IL-25 expressed with a C-terminal …
Assay: BLI Octet, hIL-25-MMH captured on anti-Penta-His sensor, 25C
Method: Binding competition between anti-IL-25 monoclonal antibodies was determined using a real time, label-free bio-layer interferometry assay on an Octet QK384 biosensor (Pall ForteBio Corp.).
The biosensors were washed in HBST kinetics buffer in between every step of the experiment. The real-time binding response was monitored during the course of the experiment and the binding response at the end of every step was recorded.

| 50 ug/mL mAb-1 Binding (nm) | Binder |
| --- | --- |
| 1.13 nm | B1 |
| 1.12 nm | B2 |
| 1.07 nm | B3 |
| 1.59 nm | B4 |
| 1.12 nm | B5 |

Target: T2, human IL-25 expressed with a C-terminal …
Assay: competition ELISA, 2 nM hIL-25-MMH binding to coated hIL-17RB-hFc; (*) below theoretical bottom of the assay
Method: as §1

| IC50 | Binder |
| --- | --- |
| 0.92 nM | B1 |
| 0.32 nM | B2 |
| 0.65 nM | B3 |
| 0.53 nM | B4 |
| 0.71 nM | B5 |

Target: T1, mouse IL-25 expressed with a C-terminal …
Assay: SPR Biacore, antibody captured, 25C;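 for 100 nM Rat IL-25-MMH Bound (RU): purified anti-IL-25 antibodies were tested by real-time surface plasmon resonance on a Biacore 4000, with rate constants obtained from sensorgram fits to a 1:1 binding model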
Method: as §2

| 100 nM Mouse IL-25-MMH Bound (RU) | Kd | koff | kon | t½ | Binder |
| --- | --- | --- | --- | --- | --- |
| 22 RU | 2.67 nM | 0.000149 s⁻¹ | 55700 M⁻¹ s⁻¹ | 1.3 h | B1 |
| 20 RU | 7.05 nM | 0.00104 s⁻¹ | 148000 M⁻¹ s⁻¹ | 0.183 h | B2 |
| 40 RU | 0.57 nM | 9.89e-05 s⁻¹ | 174000 M⁻¹ s⁻¹ | 1.95 h | B3 |
| 43 RU | 1.17 nM | 0.000145 s⁻¹ | 124000 M⁻¹ s⁻¹ | 1.33 h | B4 |
| 30 RU | 0.918 nM | 0.000111 s⁻¹ | 121000 M⁻¹ s⁻¹ | 1.73 h | B5 |

Target: T3, monkey IL-25 expressed with a …
Assay: SPR Biacore, antibody captured, 37C;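 for 100 nM Monkey IL-25-MMH Bound (RU): biacore 4000 surface plasmon resonance biosensor measuring binding of IL-25-MMH to purified anti-IL-25 antibodies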;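 for 100 nM Mouse IL-25-MMH Bound (RU): Real-time sensorgrams of IL-25-MMH binding to purified anti-IL-25 antibodies, rate constants obtained by fitting a 1:1 binding model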
Method: as §2

| 100 nM Monkey IL-25-MMH Bound (RU) | Kd | koff | kon | t½ | Binder |
| --- | --- | --- | --- | --- | --- |
| 51 RU | 0.0685 nM | 8.07e-05 s⁻¹ | 1.18e+06 M⁻¹ s⁻¹ | 2.38 h | B1 |
| 49 RU | 0.189 nM | 0.000231 s⁻¹ | 1.22e+06 M⁻¹ s⁻¹ | 0.833 h | B2 |
| 64 RU | 0.104 nM | 5.45e-05 s⁻¹ | 524000 M⁻¹ s⁻¹ | 3.53 h | B3 |
| 59 RU | 0.135 nM | 9.01e-05 s⁻¹ | 668000 M⁻¹ s⁻¹ | 2.13 h | B4 |
| 54 RU | 0.0546 nM | 7.4e-05 s⁻¹ | 1.35e+06 M⁻¹ s⁻¹ | 2.6 h | B5 |

Target: T4, rat IL-25 expressed with a C-terminal …
Assay: SPR Biacore, antibody captured, 37C;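 for 100 nM Monkey IL-25-MMH Bound (RU): biacore 4000 surface plasmon resonance biosensor measuring binding of IL-25-MMH to purified anti-IL-25 antibodies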;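 for 100 nM Mouse IL-25-MMH Bound (RU): Real-time sensorgrams of IL-25-MMH binding to purified anti-IL-25 antibodies, rate constants obtained by fitting a 1:1 binding model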

| 100 nM Rat IL-25-MMH Bound (RU) | Kd | koff | kon | t½ | Binder |
| --- | --- | --- | --- | --- | --- |
| 41 RU | 0.72 nM | 0.000341 s⁻¹ | 474000 M⁻¹ s⁻¹ | 0.567 h | B1 |
| 22 RU | 24.6 nM | 0.00601 s⁻¹ | 245000 M⁻¹ s⁻¹ | 0.0317 h | B2 |
| 53 RU | 0.238 nM | 0.000107 s⁻¹ | 450000 M⁻¹ s⁻¹ | 1.8 h | B3 |
| 49 RU | 0.377 nM | 0.000181 s⁻¹ | 481000 M⁻¹ s⁻¹ | 1.07 h | B4 |
| 45 RU | 0.0602 nM | 5.64e-05 s⁻¹ | 937000 M⁻¹ s⁻¹ | 3.42 h | B5 |

Target: T2, human IL-25 expressed with a C-terminal …
Assay: cell-based or functional assay
Remark: another data set of the same source

| IC50 values of antibodies for blocking IL-5 release from Donor #727058-059 | IC50 values of antibodies for blocking IL-5 release from Donor #727060 | Binder |
| --- | --- | --- |
| 0.172 nM | 0.13 nM | B3 |
| 0.118 nM | 0.636 nM | B5 |
